Entries after “also recorded” stand apart in the source; their conditions may differ.
T1: Sort1 (Mus musculus, UniProt Q6PHU5)
T1 construct: Brain lysate was prepared from mouse brain by homogenization in RIPA buffer; from tissue; host or cells: mouse brain lysate (RIPA buffer)
T1 sequence (Q6PHU5 74-825): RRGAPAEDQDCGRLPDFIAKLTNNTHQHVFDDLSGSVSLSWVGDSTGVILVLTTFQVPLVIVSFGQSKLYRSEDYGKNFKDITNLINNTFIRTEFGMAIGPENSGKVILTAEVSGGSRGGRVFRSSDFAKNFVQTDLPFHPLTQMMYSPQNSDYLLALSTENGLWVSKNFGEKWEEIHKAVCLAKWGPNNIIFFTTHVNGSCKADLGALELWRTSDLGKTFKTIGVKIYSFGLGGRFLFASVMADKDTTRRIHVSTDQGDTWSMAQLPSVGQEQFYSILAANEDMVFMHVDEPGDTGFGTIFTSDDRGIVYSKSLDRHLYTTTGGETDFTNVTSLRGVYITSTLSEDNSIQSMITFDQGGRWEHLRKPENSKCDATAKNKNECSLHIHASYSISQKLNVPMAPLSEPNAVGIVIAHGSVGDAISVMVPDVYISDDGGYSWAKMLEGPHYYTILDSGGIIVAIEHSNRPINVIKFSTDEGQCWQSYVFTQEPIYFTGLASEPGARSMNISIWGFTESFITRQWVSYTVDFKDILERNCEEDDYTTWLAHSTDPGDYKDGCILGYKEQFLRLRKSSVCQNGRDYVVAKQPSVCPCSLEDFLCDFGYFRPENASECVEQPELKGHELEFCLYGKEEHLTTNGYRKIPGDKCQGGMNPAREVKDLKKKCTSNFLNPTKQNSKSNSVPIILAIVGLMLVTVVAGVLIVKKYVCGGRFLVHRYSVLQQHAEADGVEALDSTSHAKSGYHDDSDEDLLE

T2: sortilin (Homo sapiens, UniProt Q99523)
T2 sequence (Q99523 78-831): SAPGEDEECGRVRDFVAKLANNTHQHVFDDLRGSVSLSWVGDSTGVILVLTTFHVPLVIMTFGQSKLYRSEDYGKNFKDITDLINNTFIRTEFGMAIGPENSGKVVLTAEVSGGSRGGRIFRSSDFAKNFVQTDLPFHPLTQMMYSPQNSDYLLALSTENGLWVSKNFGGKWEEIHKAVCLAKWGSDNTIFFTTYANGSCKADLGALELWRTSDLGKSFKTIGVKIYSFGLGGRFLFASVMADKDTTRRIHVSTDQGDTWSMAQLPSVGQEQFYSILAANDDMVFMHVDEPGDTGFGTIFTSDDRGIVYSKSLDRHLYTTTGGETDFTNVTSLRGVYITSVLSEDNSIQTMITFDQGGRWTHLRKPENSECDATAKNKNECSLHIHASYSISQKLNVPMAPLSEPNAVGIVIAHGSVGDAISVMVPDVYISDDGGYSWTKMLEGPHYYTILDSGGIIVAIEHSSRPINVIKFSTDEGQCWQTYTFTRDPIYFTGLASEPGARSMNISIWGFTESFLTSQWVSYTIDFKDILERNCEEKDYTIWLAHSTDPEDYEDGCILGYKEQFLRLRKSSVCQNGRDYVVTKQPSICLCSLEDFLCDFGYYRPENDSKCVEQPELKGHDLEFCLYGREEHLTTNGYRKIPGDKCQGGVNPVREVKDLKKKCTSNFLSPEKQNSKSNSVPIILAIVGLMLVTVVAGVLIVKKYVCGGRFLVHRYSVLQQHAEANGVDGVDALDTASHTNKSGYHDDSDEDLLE

T3: sortilin-1 (Sort1; PGRN-R) (Mus musculus, UniProt Q6PHU5)
T3 construct: host or cells: COS-7 (ATCC No. CRL-1651)
T3 sequence (Q6PHU5 74-825): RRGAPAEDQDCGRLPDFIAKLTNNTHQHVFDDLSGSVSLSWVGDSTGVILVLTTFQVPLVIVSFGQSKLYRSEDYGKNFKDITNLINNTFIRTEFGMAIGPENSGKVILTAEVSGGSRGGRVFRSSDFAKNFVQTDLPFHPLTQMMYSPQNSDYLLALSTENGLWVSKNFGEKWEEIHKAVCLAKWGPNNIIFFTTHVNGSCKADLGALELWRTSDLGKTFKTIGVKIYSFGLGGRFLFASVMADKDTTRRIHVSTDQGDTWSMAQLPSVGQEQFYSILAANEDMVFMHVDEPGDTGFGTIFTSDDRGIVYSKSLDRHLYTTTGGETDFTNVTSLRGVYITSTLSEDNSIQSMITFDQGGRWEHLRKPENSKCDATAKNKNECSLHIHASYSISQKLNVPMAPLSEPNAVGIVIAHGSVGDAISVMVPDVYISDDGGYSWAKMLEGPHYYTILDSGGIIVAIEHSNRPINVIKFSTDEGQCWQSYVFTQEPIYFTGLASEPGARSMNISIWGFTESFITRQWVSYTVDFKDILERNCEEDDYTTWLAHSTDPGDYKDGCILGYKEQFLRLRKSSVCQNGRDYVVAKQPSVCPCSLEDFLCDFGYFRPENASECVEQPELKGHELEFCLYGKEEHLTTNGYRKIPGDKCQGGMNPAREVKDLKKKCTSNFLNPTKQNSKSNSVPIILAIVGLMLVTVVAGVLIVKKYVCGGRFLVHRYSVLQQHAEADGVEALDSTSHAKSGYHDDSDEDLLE


Assays:
[1] = biological target: T1, Sort1; experiment: Affinity chromatography pull-down of Sort1 from brain lysate; type: binding; settings: wild type brain lysate or extract
Protocol: For affinity chromatography, glutathione S-transferase (GST) fused to the C-terminal segment of PGRN (amino acids 495 to the end) was produced in E. coli as a 45 kDa protein and then purified on glutathione-sepharose resin. Brain lysate was prepared from mouse brain by homogenization in RIPA buffer and then incubated with the GST-PGRN containing resin. After washing, bound protein was eluted with SDS and analyzed by anti-sortilin immunoblot. […] Thus, it can be unexpectedly concluded from these studies that PGRN and sortilin interact in a ligand/receptor-type complex on the cell surface.

[2] = tested on: Cortical neurons isolated from E18 rat embryos; experiment: Neurite outgrowth assay in cortical neurons; type: cell-based; settings: 100 nM, 1 day in vitro, vs vehicle
Protocol: To further examine the PGRN-Sort1 interaction, neurite outgrowth assays were performed. Cortical neurons were isolated from E18 rat embryos and cultured for 1 day in vitro with or without 100 nM purified Flag-PGRN protein, as described above. Neurites were then visualized with an anti-Beta III tubulin (Promega) using an automated image acquisition. Neurite outgrowth analysis was done using ImageXpress (Molecular Devices), and average neurite length was calculated. […] Although this finding differs from a recent report (Van Damme, P., et al., J. Cell Biol. 181:37-41 (2008)), it is possible that cell survival is the primary action of PGRN, and any outgrowth effect is secondary.

[3] = biological target: Rat (Sprague-Dawley) cortical neurons; experiment: AP-tagged ligand binding to cultured rat cortical neurons; settings: saturation analysis, FIG. 1D; read-out: affinity of neuronal binding sites for PGRN
Protocol: (§1) Rat (Sprague-Dawley) cortical neurons were isolated from E18 embryos and cultured in vitro for 3-21 days. Cultures were maintained in Neurobasal-A medium supplemented with B27, GLUTAMAX™ (2 mM), sodium pyruvate (1 mM), penicillin, and streptomycin. The binding of 10 nM AP-PGRN or 10 nM AP was detected as a dark reaction product produced by alkaline phosphatase (AP). Binding was measured as follows. The AP tagged ligand (in NBA) was incubated with the cortical neurons for 1 hr at 4° C., washed three times with HBH buffer, fixed with formaldehyde, and after washing again with HBH the neurons were incubated in a 67° C. oven to inactivate the endogenous AP. The tagged AP was then visualized using AP substrate 5-bromo-4-chloro-3-indolyl phosphate/nitro blue tetrazolium, which results in a dark precipitate. […] The addition of 100 nM Flag-PGRN displaced 10 nM AP-PGRN (FIG. 1C, middle panel).

[4] = tested on: mouse E17 cortical neurons; experiment: AP-PGRN binding to mouse cortical neurons (wild type, sortilin +/- and -/-); settings: 100 nM unlabeled competitor against 5 nM AP-PGRN, 1 hr preincubation
Protocol: as §1
Binding was measured according to the methods described above by preincubating 100 nM PGRN with the cortical neurons for 1 hr and using a 5 nM AP-PGRN and 100 nM untagged PGRN mixture. […]
Gene-targeted sortilin −/− and +/− mice from Anders Nykjaer, M.D., Ph.D., Aarhus University, Aarhus, Denmark, were used to obtain cultures of cortical neurons. The binding of 2 nM AP-PGRN to cortical neurons isolated from sortilin −/− (FIG. 3B, left panel) and +/− (FIG. 3B, right panel) mice was evaluated. […]

[5] = biological target: T2, sortilin; experiment: PGRN binding to sortilin of human origin; settings: data not shown
Excerpt: The human SorLA expression vector was provided by Anders Nykjaer, M.D., Ph.D., Aarhus University, Aarhus, Denmark (Jacobsen, L., et al., J. Biol. Chem. 276:22788-22796 (2001); Gliemann, J., et al., Biochem J. 381:203-212 (2004); GenBank Accession No. U60975), and the mouse SorCS1 expression vector in pCMV-Sport6 was obtained from Open Biosystems (GenBank Accession No. BC007486). […] A fragment of PGRN, termed PGRN-E in the literature, binds to sortilin with the same affinity as does full length PGRN (data not shown).

[6] = tested on: cortical neurons from E18 rat embryo cerebral cortex; experiment: Apoptosis assay (cleaved caspase 3) in cortical neuron cultures; type: cell-based; settings: 100 nM, 36 hours, vs vehicle; 7 days in vitro
Protocol: In order to examine the PGRN-Sort1 interaction and the effects of PGRN on cerebral cortical cultures, apoptosis assays were performed. Cultures of cortical neurons were established from E18 rat embryo cerebral cortex, as described above, and maintained for 7 days in vitro. Then, the cells were exposed to vehicle or 100 nM purified PGRN protein for 36 hours. The cultures were maintained as mentioned above, and Flag-PGRN diluted in PBS or PBS vehicle were incubated in the cultures for 36 h. Thereafter, the cells were fixed with FA 15 mts and stained with anti-cleaved caspase 3 antibody (Cell Signaling) to detect apoptotic cells (FIG. 6A; shown in white) and with DAPI to detect all nuclei (FIG. 6A; shown in gray). […] These finding may relate indirectly to one study of immortalized cells linking PGRN to caspase-mediated cleavage of TDP43 (Zhang, Y. J., et al., J. Neurosci. 27:10530-10534 (2007)).

[7] = biological target: T3, sortilin-1 (Sort1; PGRN-R); experiment: AP-PGRN binding to COS-7 cells transfected with Sort1 cDNA
Protocol: as §1
To determine the molecular nature of the neuronal binding site of PGRN, expression cloning experiments utilizing AP-PGRN as a tagged ligand were conducted. COS-7 (ATCC No. CRL-1651) cells were transfected with expression vectors containing mouse cDNAs using FUGENE® 6 according to manufacturer's specifications (Roche). […]

| Molecule | pull-down of Sort1 (anti-sortilin immunoblot) [1] | cortical neurite outgrowth (βIII tubulin) [2] | Kd [3] [nM] | displacement of AP-PGRN binding [4] | binding to sortilin of human origin [5] | number of cells positive for cleaved caspase-3 [6] | displacement of AP-PGRN binding ([7]; 100 nM untagged competitor against 5 nM AP-PGRN) | binding to sortilin of mouse origin ([7]; data not shown) |
| --- | --- | --- | --- | --- | --- | --- | --- | --- |
| GST-PGRN: glutathione S-transferase (GST) fused to the C-terminal segment of PGRN (amino acids 495 to the end), produced in E. coli (protein, left off: a dimerising Fc or GST, glutathione S-transferase (GST) fused to the C-terminal segment of PGRN (amino acids 495 to the end), produced in E. coli) CEKEVVSAQPATFLARSPHVGVKDVECGEGHFCHDNQTCCRDNRQGWACCPYRQGVCCADRRHCCPAGFRCAARGTKCLRREAPRWDAPLRDPALRQLL | immunoreactive Sort1 band was detected | – | – | – | – | – | – | – |
| PGRN: progranulin protein; unlabeled/untagged competitor in binding assays, purified Flag-PGRN in Example 2 cultures (protein) TQCPDGQFCPVACCLDQGGANYSCCNPLLDTWPRITSHHLDGSCQTHGHCPAGYSCLLTVSGTSSCCPFSKGVSCGDGYHCCPQGFHCSADGKSCFQMSDNPLGAVQCPGSQFECPDSATCCIMVDGSWGCCPMPQASCCEDRVHCCPHGASCDLVHTRCVSPTGTHTLLKKFPAQKTNRAVSLPFSVVCPDAKTQCPDDSTCCELPTGKYGCCPMPNAICCSDHLHCCPQDTVCDLIQSKCLSKNYTTDLLTKLPGYPVKEVKCDMEVSCPEGYTCCRLNTGAWGCCPFAKAVCCEDHIHCCPAGFQCHTEKGTCEMGILQVPWMKKVIAPLRLPDPQILKSDTPCDDFTRCPTNNTCCKLNSGDWGCCPIPEAVCCSDNQHCCPQGFTCLAQGYCQKGDTMVAGLEKIPARQTTPLQIGDIGCDQHTSCPVGQTCCPSLKGSWACCQLPHAVCCEDRQHCCPAGYTCNVKARTCEKDVDFIQPPVLLTLGPKVGNVECGEGHFCHDNQTCCKDSAGVWACCPYLKGVCCRDGRHCCPGGFHCSARGTKCLRKKIPRWDMFLRDPVPRPLL | – | No PGRN-induced change; also recorded: no significant difference | ~20 | displaced | binds | less | displaceable | binds |

From patent US20120039865A1, “IDENTIFICATION OF SORTILIN AS A NEURONAL RECEPTOR FOR THE FRONTOTEMPORAL DEMENTIA PROTEIN, PROGRANULIN” (Yale University, priority 2008, published 2012)
